Assay results published in US8673313B2, “Cell penetrating peptides and its use fused to biomolecules with therapeutic action” (priority 2007, dated 2014).

Assays:
[1] = test system: cellular immune response against the antigen E7 de HPV-16; assay: ELISPOT anti-IFN-γ of splenocytes of immunized mice; type: in vivo, mice C57BL/6; settings: 30 μg s.c., 2 doses every 14 days, without adjuvant
Experimental: In order to evaluate the cellular immune response against the antigen E7 de HPV-16, 4 groups of 3 mice females C57BL/6, from 6 to 8 weeks of born, received 2 doses of immunogens. The group 1 was immunized with the 30 μg of the recombinant protein LALF-E7; group 2 with the 30 μg of the recombinant protein E7; group 3 with 8 μg of synthetic peptide LALF and group 4 with PBS. The immunizations were made of subcutaneous way in the flank of the animal with volumes of 0.2 mL and without adjuvant. Every 14 days were administered two doses. Seven days after the second immunization, the mice were sacrificed by break-up of the cervical and the splenocytes were removed aseptically for their later analysis in a test of ELISPOT anti-gamma interferon (anti-IFN-γ). The cellular suspensions of the animals by each group met in pool and they were homogenized smoothly. […]
The test for the determination of the IFN-γ secretion was made as described previously (Vazquez-Blomquist D. et al. (2002) Induction of a strong HIV-specific CD8+ T cell response in mice using a fowlpox virus vector expressing an HIV-1 multi-CTL-epitope polypeptide. Viral Immunol. 5(2):337-356). […] After this time, the surviving cells counted and were used for determinations of ELISPOT under the same conditions.
The results were expressed as a number of spot forming cells (SFC) per 10^6 splenocytes. […]

J774 cells = assay: Fluorescence microscopy: internalization of the cargo protein E7 to the cell; type: cell-based; settings: 1.66 μM protein, J774, 37° C., 30 min, 1 hour and 2 hours, FIG. 4
Experimental: Cells J774 grown on sterile glass cover slips of 22 mm overnight at 37° C. and 5% of CO2 with RPMI 1640, 10% inactivated calf fetal serum and 2 mM de glutamine. Then, different glass cover slips incubated with 1.66 μM fusion protein LALF-E7, 1.66 μM of protein E7 and PBS (as negative control) a 37° C. per 30 min, 1 hour and 2 hours. CasKi cells (human cells expressing HPV 16) grown as positive control in the same experimental conditions.
After incubation the cells were washed briefly with PBS and fix cells by 4% paraformaldehide per 20 min at room temperature. Wash in three changes of PBS. The permeabilization of the cells was with 0.5% Tritón X-100 for 15 min a room temperature. Wash in three changes of PBS. Then, the cells were incubating for 1 hour in 1% blocking SFB in PBS at room temperature. Wash in three changes of PBS. Cells were incubated with goat IgG anti E7/HPV 16 polyclonal antibody (Santa Cruz) diluted in PBS 1:50. Wash extensively with PBS. Incubate with anti-goat-fluorescein IgG polyclonal antibody (Santa Cruz) diluted in PBS 1:50 for 45 minutes in a dark chamber. Wash extensively with PBS. Mount cover slip with aqueous mounting medium. Examine using a fluorescence microscope with appropriate filters.

[2] = test system: TC-1 tumor cell line expressing the HPV16 E7 protein; assay: Treatment of established TC-1 tumors in mice, fusion versus mix (Example 9); type: in vivo, Mice C57BL/6; settings: two immunizations every 14 days from day 10, volume at the 30 days, p<0.01 vs LALF+E7, LALF, E7 and PBS, FIG. 8
Experimental: To study whether the antitumor effect of LALF-E7 was associated with the covalent bond of both molecules, we carried out experiments in which mice were treated for LALF and E7, which were mixed at the time prior to their use at equal molarity that would allow a comparison with mice that received the fusion protein LALF-E7.
In this realization, Mice C57BL/6 was inoculated with 2×10^5 cells by subcutaneous injection in right leg in volumes of 0.2 mL. To the 10 days, when all the animals had developed palpable tumors, the animals were assigned arbitrarily to five groups of treatments. Each group included 10 animals.
Two immunizations, every 14 days were made. The group 1 was immunized with the recombinant protein LALF-E7; group 2 with the mix LALF+E7: recombinant protein E7; group 3 with synthetic peptide LALF; group 4 with recombinant protein E7 and group 5 with PBS. The tumor kinetic in the different groups was followed as previously described in the example 8. The volume average of each group +/− the standard deviation at the 30 days is represented in the FIG. 8.

B1: LALF-E7: recombinant fusion of CPP LALF to E7 protein of HPV 16, cysteine per glycine in Rb site (SEQ ID N0. 9 y 10) (protein)
chain: MAEFHYRIKPTFRRLKWKYKGKFWKASHGDTPTLHEYMLDLQPETTDLYGYEQLNDSSEEEDEIDGPAGQAEPDRAHYNIVTFCCKCDSTLRLCVQSTHVDIRTLEDLLMGTLGIVCPICSQKPGSRAHHHHHH
modifications: Artificial Sequence Description Protein fusion CPP LALF-E7
[1]
  T CD8+ lymphocyte response: effective response of T CD8^+ lymphocytes
[1]; splenocytes 7 days after second immunization, FIG. 9
  number of SFC (IFN-γ secretor cells) relative to the groups immunized with VSSP and PBS: ~8 times
J774 cells
  internalization of E7 (fluorescent cells, anti-E7 antibody): fluorescent cells
[2]
  effect on volume of established tumors: effects in reducing the volume of tumors
